Measured values taken from patent US20050272090, “Nucleic acid binding of multi-zinc finger transcription factors” (published 2005).

T1: SIP1 full length in cells (Mus musculus) (UniProt Q9R0G7)
T1 sequence: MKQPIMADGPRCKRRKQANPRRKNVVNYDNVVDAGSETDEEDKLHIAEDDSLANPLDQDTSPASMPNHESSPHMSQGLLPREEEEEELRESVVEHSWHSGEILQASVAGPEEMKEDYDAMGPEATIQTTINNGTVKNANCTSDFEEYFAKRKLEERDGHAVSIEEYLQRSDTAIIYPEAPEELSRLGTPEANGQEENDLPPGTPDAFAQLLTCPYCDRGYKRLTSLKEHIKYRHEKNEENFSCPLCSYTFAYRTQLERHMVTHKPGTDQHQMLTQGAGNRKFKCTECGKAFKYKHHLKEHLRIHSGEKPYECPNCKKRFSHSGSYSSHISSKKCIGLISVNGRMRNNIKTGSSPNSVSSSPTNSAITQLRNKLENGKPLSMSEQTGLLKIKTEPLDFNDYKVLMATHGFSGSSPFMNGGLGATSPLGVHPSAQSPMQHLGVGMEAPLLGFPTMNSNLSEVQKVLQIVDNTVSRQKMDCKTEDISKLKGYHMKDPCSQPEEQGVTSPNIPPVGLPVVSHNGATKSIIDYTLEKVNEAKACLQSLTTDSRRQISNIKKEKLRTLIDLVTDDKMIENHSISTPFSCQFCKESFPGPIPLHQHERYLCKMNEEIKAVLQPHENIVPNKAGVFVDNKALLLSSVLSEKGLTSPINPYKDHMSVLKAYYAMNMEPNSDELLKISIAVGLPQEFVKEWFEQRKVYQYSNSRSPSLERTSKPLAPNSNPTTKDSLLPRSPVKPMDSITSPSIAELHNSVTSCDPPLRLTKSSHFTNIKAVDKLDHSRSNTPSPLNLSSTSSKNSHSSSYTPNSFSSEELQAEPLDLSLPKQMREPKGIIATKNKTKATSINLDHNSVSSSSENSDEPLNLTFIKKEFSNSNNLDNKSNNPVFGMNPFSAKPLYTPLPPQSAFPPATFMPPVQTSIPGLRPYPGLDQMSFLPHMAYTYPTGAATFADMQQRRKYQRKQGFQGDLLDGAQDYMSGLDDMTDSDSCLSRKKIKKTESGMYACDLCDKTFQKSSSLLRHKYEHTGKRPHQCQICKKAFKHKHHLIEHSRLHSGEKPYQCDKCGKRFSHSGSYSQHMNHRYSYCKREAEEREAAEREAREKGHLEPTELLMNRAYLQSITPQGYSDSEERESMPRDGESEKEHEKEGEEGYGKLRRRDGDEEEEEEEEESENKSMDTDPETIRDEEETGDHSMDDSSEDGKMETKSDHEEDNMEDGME

T2: SIP1 full length (SIP1FS) (Mus musculus, UniProt Q9R0G7 Q9R0G7:1-1215)
T2 sequence: T1 sequence

B1: Xbra-WT (dsDNA)
DNA 1: ATCCAGGCCACCTAAAATATAGAATGATAAAGTGACCAGGTGTCAGTTCT
DNA 2: AGAACTGACACCTGGTCACTTTATCATTCTATATTTTAGGTGGCCTGGAT

Key:
[1] = target: T1, SIP1 full length in cells (Mus musculus); assay: cell_activity; settings: luciferase reporter in NMe, MDCK, MCF7/AZ
[2] = target: T2, SIP1 full length (SIP1FS); assay: EMSA; affinity relative to SIP1CZF, estimated from expression levels; settings: tags: N-terminal Myc6 (pCS3), COS1 cell extract; label: 32P
Method: The Xbra-WT oligonucleotide covers the region from −344 to −294 of the Xbra2 promoter (16). The region between −412 to −352 of the α4-integrin promoter is present within the α4I-WT oligonucleotide (26). The Ecad-WT probe contains the region between −86 to −17 of the human Ecad promoter (2). Double-stranded oligonucleotides were labeled with [³²P]-γ-ATP and T4 polynucleotide kinase (New England Biolabs). Total cell extracts were prepared from COS1 cells (25) transfected with different pCS3 vectors allowing synthesis of full length SIP1, full length δEF1, and different mutant forms of SIP1 (25), or co-production of equal amounts of Myc-tagged SP1 and FLAG-tagged SIP1. GST-SIP1 fusion proteins were purified from E. coli extract using the GST purification module (Pharmacia), and tested in gel retardation. The DNA binding assay (20 μl) was performed at 25° C., with 1 μg of COS1 total cell protein, 1 μg of poly dI-dC, 10 pg of ³²P-labeled double-stranded oligonucleotide (approx. 10⁴ Cerenkov counts) in the δEF1 binding buffer described previously (30). For supershift experiments, the extracts were incubated with anti-Myc (Santa Cruz) or anti-FLAG (Kodak) antibodies. For competition, an excess of unlabeled double-stranded oligonucleotides was added together with the labeled probe. […]

Molecule | activity (% decrease of promoter activity) [1] | binding signal [2]
E-cadherin promoter reporter | 80 | 
B1 |  | ≥ 50 fold
